Results on three substances are retold here after publication PMC4471362.

Data set [1] concerns Nc1ncnc2c1ncn2[C@@H]1O[C@H](COP(=O)(O)OP(=O)(O)OP(=O)(O)O)[C@@H](O)[C@H]1O. As to the kind of experiment: purified protein. As to conditions: basal ATPase, buffer presumably as for PfHsp70-z (pH 7.5, MgCl2), kcat unit as printed.
Another data set deals with hHsp70 (Homo sapiens) (UniProt P0DMV8). As to the kind of experiment: SPR. As to conditions: cited from earlier work.
In data set [2] the target is Plasmodium falciparum Hsp70-z (PfHsp70-z), recombinant (His)6-PfHsp70-z (Plasmodium falciparum). The experiment in a line: SPR; ProteOn XPR36, GLC chip, ligand immobilised by amine coupling (PfHsp70-z, 187 RU); analyte 125-2000 nM at 50 ul/min; 25°C; PBS-Tween with 20 mM EDTA, pH 7.4; with 5 mM ADP; Langmuir model. (In general: In SPR one partner is held on a chip, and binding of the other changes the refractive index at the surface.)

The target is the same in data set [3]. The experiment in a line: SPR; ProteOn XPR36, GLC chip, ligand immobilised by amine coupling (PfHsp70-z, 187 RU); analyte 125-2000 nM at 50 ul/min; 25°C; PBS-Tween with 20 mM EDTA, pH 7.4; with 5 mM ATP; Langmuir model.
Data set [4] has the same target. As to the kind of experiment: SPR; ProteOn XPR36, GLC chip, ligand immobilised by amine coupling (PfHsp70-z, 187 RU); analyte 125-2000 nM at 50 ul/min; 25°C; PBS-Tween with 20 mM EDTA, pH 7.4; no nucleotide; Langmuir model.

Sequence of hHsp70 (P0DMV8 2-641): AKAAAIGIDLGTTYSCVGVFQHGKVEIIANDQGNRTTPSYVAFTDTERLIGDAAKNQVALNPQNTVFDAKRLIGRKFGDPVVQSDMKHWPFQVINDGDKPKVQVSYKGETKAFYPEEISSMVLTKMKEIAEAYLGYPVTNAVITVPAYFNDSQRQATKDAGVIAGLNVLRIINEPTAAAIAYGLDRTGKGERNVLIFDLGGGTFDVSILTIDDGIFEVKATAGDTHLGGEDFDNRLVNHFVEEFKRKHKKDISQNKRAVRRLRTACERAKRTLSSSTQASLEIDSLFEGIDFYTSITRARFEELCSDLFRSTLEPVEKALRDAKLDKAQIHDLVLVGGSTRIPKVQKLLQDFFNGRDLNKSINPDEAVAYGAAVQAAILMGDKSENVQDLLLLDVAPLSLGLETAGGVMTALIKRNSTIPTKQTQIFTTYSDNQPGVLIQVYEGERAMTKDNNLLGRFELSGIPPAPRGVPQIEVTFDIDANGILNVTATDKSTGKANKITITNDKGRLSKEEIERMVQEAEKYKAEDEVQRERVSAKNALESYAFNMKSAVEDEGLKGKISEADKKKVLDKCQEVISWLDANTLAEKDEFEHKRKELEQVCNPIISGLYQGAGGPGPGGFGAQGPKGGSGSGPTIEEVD

As to PfHsp70-1 (Plasmodium falciparum 3D7), in data set [1], the Km is on record as 428 (+/- 5) μM and the Vmax (as a rule, the rate approached at saturating substrate) amounted to 0.0246 µmol/min/mg.
For hHsp70 (from UniProt P0DMV8), the Kd (commonly the concentration at which binding is half-saturated) with hHsp70 (Homo sapiens) was 4.5 nM.
Turning to “Plasmodium falciparum Hsp70-z (PfHsp70-z), recombinant (His)6-PfHsp70-z (natural protein)”, in data set [2], the Kd was found to be 11.5 nM; the dissociation rate constant (koff) (commonly the rate constant with which the complex falls apart) was found to be 7.6e-05 s⁻¹; the kon – broadly, the second-order rate constant of association – came out at 6620 M⁻¹ s⁻¹. Further, in data set [3], the Kd amounted to 11.3 nM, the koff is 3.2e-05 s⁻¹ and the kon amounted to 2840 M⁻¹ s⁻¹. Besides, in data set [4], the Kd amounted to 7.97 nM, the koff worked out at 9.54e-05 s⁻¹ and the kon came out at 12000 M⁻¹ s⁻¹.
